Measured values reported in publication PMC2174084 (The Journal of Cell Biology, 2002).
No end group written: not given here.

Target: rabbit skeletal muscle actin, polymerized (F-actin) (rabbit, UniProt P68135 1-377)
Test: co-sedimentation

| binding result | percent of the protein sedimenting with actin | Binder |
| --- | --- | --- |
| binds | – | LYAVGGHDGPMVRRSVEAYDCETNSWRSVADMSYCRRNAGVVAHDGL (domain or fragment, cysteine pairing not given here; also: biotin-labeled, place not given here) [Kelch repeat 5 (L594-L640)] |
| – | 100% | LYAVGGHDGPMVRRSVEAYDCETNSWRSVADMSACRRNAGVVAHDGL (domain or fragment, cysteine pairing not given here; also: biotin-labeled, place not given here) [Kelch repeat 5 (L594-[Y627A]-L640)] |
| – | < 50% | LYAVGGHDGPMVRRSVEAYDCETNSWRSVADMSDCRRNAGVVAHDGL (domain or fragment, cysteine pairing not given here; also: biotin-labeled, place not given here) [Kelch repeat 5 (L594-[Y627D]-L640)] |
| – | 100% | LYAVGGHDGPMVRRSVEAYDCETNSWRSVADMSFCRRNAGVVAHDGL (domain or fragment, cysteine pairing not given here; also: biotin-labeled, place not given here) [Kelch repeat 5 (L594-[Y627F]-L640)] |
